Tests used:
[1] = HPLC-assay for stability of peptides in lyophilised formulation on storage for 3 months (Example 4); assay type: physicochemical; details: for stability of peptides in formulation, 1 M: 1 month; for stability of peptides in formulation, 2 M: 2 months; for stability of peptides in formulation, 3 M: 3 months
Protocol: (§1) Identity, purity and peptide content are determined by analytical RP-HPLC chromatography. Detection wavelength was 220 nm.

[2] = HPLC-assay for in-use stability after reconstitution with 4.2% sodium hydrogen carbonate solution (Example 3, peptides SEQ ID NO 11-23); assay type: physicochemical
Protocol: For clinical trials the above described formulation is dissolved in 700 μl sodium hydrogen carbonate (4.2%). To dissolve the lyophilisate, the vial and the diluent shall be shaken vigorously for 1 minute, check whether solution is clear, otherwise continue shaking for another minute until the solution is clear. Administration of 500 μL of the solution has to occur within 1 h after reconstitution. Dissolved lyophilisate may be stored aseptically at room temperature for up to 1 hour following reconstitution.
as §1

In the case of “GLWHHQTEV (listed as Homo sapiens) [NRCAM-001, Neuronal cell adhesion molecule peptide]”, the “stability of peptides in formulation, 1 M” value (from here on “stability of peptides … 1 M”) ([1]; +5° C. +/- 3° C.) is reported as 99.13 % of Initial, the “stability of peptides in formulation, 2 M” value (“stability of peptides … 2 M” for short) ([1]; +5° C. +/- 3° C.) is reported as 98.17 % of Initial and the “stability of peptides in formulation, 3 M” value (“stability of peptides … 3 M” for short) ([1]; +5° C. +/- 3° C.) is reported as 98.79 % of Initial. The “stability of peptides in formulation, INITIAL” value (“stability of peptides … INITIAL” for short) ([1]; +5° C. +/- 3° C.) was 100.0%, the “stability of peptides … 1 M” value ([1]; +25° C. +/- 2° C.) was 97.90 % of Initial and the “stability of peptides … 2 M” value ([1]; +25° C. +/- 2° C.) was 96.73 % of Initial. The “stability of peptides … 3 M” value ([1]; +25° C. +/- 2° C.) was 97.59 % of Initial, the “stability of peptides … INITIAL” value ([1]; +25° C. +/- 2° C.) was 100.0% and the “stability of peptides … 1 M” value ([1]; -20° C. +/- 5° C.) was 99.23 % of Initial. For the same sequence, the “stability of peptides … 2 M” value ([1]; -20° C. +/- 5° C.) was 97.86 % of Initial, the “stability of peptides … 3 M” value ([1]; -20° C. +/- 5° C.) was 98.91 % of Initial and the “stability of peptides … INITIAL” value ([1]; -20° C. +/- 5° C.) was 100.0%. The “in-use stability, Peptide [%]” value ([2]; +Mannitol/Lutrol, 2h) was 99.9%, the “in-use stability, Peptide [%]” value ([2]; +Mannitol/Lutrol, 4h) was 100.0% and the “in-use stability, Peptide [%]” value ([2]; +Mannitol/Lutrol, 6h) was 99.5%. The “in-use stability, Peptide [%]” value ([2]; +Mannitol/Lutrol, Initial) was 100.0%, the “in-use stability, Peptide [%]” value ([2]; no excipients, 2h) was 99.8% and the “in-use stability, Peptide [%]” value ([2]; no excipients, 4h) was 100.2%. The “in-use stability, Peptide [%]” value ([2]; no excipients, 6h) was 95.6% and the “in-use stability, Peptide [%]” value ([2]; no excipients, Initial) was 100.0%.

In the case of “KIQEILTQV (listed as Homo sapiens) [IGF2BP3-001]”, the “stability of peptides … 1 M” value ([1]; +5° C. +/- 3° C.) is reported as 99.00 % of Initial, the “stability of peptides … 2 M” value ([1]; +5° C. +/- 3° C.) is reported as 97.92 % of Initial and the “stability of peptides … 3 M” value ([1]; +5° C. +/- 3° C.) is reported as 98.57 % of Initial. The “stability of peptides … INITIAL” value ([1]; +5° C. +/- 3° C.) was 100.0%, the “stability of peptides … 1 M” value ([1]; +25° C. +/- 2° C.) was 98.01 % of Initial and the “stability of peptides … 2 M” value ([1]; +25° C. +/- 2° C.) was 96.77 % of Initial. For the same sequence, the “stability of peptides … 3 M” value ([1]; +25° C. +/- 2° C.) was 97.34 % of Initial, the “stability of peptides … INITIAL” value ([1]; +25° C. +/- 2° C.) was 100.0% and the “stability of peptides … 1 M” value ([1]; -20° C. +/- 5° C.) was 99.10 % of Initial. The “stability of peptides … 2 M” value ([1]; -20° C. +/- 5° C.) was 97.54 % of Initial, the “stability of peptides … 3 M” value ([1]; -20° C. +/- 5° C.) was 98.42 % of Initial and the “stability of peptides … INITIAL” value ([1]; -20° C. +/- 5° C.) was 100.0%. For the same sequence, the “in-use stability, Peptide [%]” value ([2]; +Mannitol/Lutrol, 2h) was 100.4%, the “in-use stability, Peptide [%]” value ([2]; +Mannitol/Lutrol, 4h) was 100.6% and the “in-use stability, Peptide [%]” value ([2]; +Mannitol/Lutrol, 6h) was 100.7%. For the same sequence, the “in-use stability, Peptide [%]” value ([2]; +Mannitol/Lutrol, Initial) was 100.0%, the “in-use stability, Peptide [%]” value ([2]; no excipients, 2h) was 100.0% and the “in-use stability, Peptide [%]” value ([2]; no excipients, 4h) was 101.2%. For the same sequence, the “in-use stability, Peptide [%]” value ([2]; no excipients, 6h) was 96.0% and the “in-use stability, Peptide [%]” value ([2]; no excipients, Initial) was 100.0%.

With “KVFAGIPTV (listed as Homo sapiens) [PTP-005, Protein tyrosine phosphatase, receptor-type, Z polypeptide 1 peptide]” the “stability of peptides … 1 M” value ([1]; +5° C. +/- 3° C.) was 98.93 % of Initial, the “stability of peptides … 2 M” value ([1]; +5° C. +/- 3° C.) was 97.79 % of Initial and the “stability of peptides … 3 M” value ([1]; +5° C. +/- 3° C.) was 98.67 % of Initial. For the same sequence, the “stability of peptides … INITIAL” value ([1]; +5° C. +/- 3° C.) was 100.0%, the “stability of peptides … 1 M” value ([1]; +25° C. +/- 2° C.) was 98.16 % of Initial and the “stability of peptides … 2 M” value ([1]; +25° C. +/- 2° C.) was 97.10 % of Initial. The “stability of peptides … 3 M” value ([1]; +25° C. +/- 2° C.) was 98.30 % of Initial, the “stability of peptides … INITIAL” value ([1]; +25° C. +/- 2° C.) was 100.0% and the “stability of peptides … 1 M” value ([1]; -20° C. +/- 5° C.) was 98.99 % of Initial. The “stability of peptides … 2 M” value ([1]; -20° C. +/- 5° C.) was 97.41 % of Initial, the “stability of peptides … 3 M” value ([1]; -20° C. +/- 5° C.) was 98.34 % of Initial and the “stability of peptides … INITIAL” value ([1]; -20° C. +/- 5° C.) was 100.0%. For the same sequence, the “in-use stability, Peptide [%]” value ([2]; +Mannitol/Lutrol, 2h) was 100.1%, the “in-use stability, Peptide [%]” value ([2]; +Mannitol/Lutrol, 4h) was 100.3% and the “in-use stability, Peptide [%]” value ([2]; +Mannitol/Lutrol, 6h) was 99.8%. The “in-use stability, Peptide [%]” value ([2]; +Mannitol/Lutrol, Initial) was 100.0%, the “in-use stability, Peptide [%]” value ([2]; no excipients, 2h) was 99.9% and the “in-use stability, Peptide [%]” value ([2]; no excipients, 4h) was 100.4%. For the same sequence, the “in-use stability, Peptide [%]” value ([2]; no excipients, 6h) was 95.8% and the “in-use stability, Peptide [%]” value ([2]; no excipients, Initial) was 100.0%.

For “LTFGDVVAV (listed as Homo sapiens) [FABP7-001]”, the “stability of peptides … 1 M” value ([1]; +5° C. +/- 3° C.) was 99.08 % of Initial, the “stability of peptides … 2 M” value ([1]; +5° C. +/- 3° C.) was 98.15 % of Initial and the “stability of peptides … 3 M” value ([1]; +5° C. +/- 3° C.) was 98.66 % of Initial. The “stability of peptides … INITIAL” value ([1]; +5° C. +/- 3° C.) was 100.0%, the “stability of peptides … 1 M” value ([1]; +25° C. +/- 2° C.) was 98.43 % of Initial and the “stability of peptides … 2 M” value ([1]; +25° C. +/- 2° C.) was 97.71 % of Initial. For the same sequence, the “stability of peptides … 3 M” value ([1]; +25° C. +/- 2° C.) was 98.67 % of Initial, the “stability of peptides … INITIAL” value ([1]; +25° C. +/- 2° C.) was 100.0% and the “stability of peptides … 1 M” value ([1]; -20° C. +/- 5° C.) was 99.09 % of Initial. For the same sequence, the “stability of peptides … 2 M” value ([1]; -20° C. +/- 5° C.) was 97.60 % of Initial, the “stability of peptides … 3 M” value ([1]; -20° C. +/- 5° C.) was 98.39 % of Initial and the “stability of peptides … INITIAL” value ([1]; -20° C. +/- 5° C.) was 100.0%. The “in-use stability, Peptide [%]” value ([2]; +Mannitol/Lutrol, 2h) was 100.9%, the “in-use stability, Peptide [%]” value ([2]; +Mannitol/Lutrol, 4h) was 100.7% and the “in-use stability, Peptide [%]” value ([2]; +Mannitol/Lutrol, 6h) was 100.6%. For the same sequence, the “in-use stability, Peptide [%]” value ([2]; +Mannitol/Lutrol, Initial) was 100.0%, the “in-use stability, Peptide [%]” value ([2]; no excipients, 2h) was 100.5% and the “in-use stability, Peptide [%]” value ([2]; no excipients, 4h) was 100.9%. The “in-use stability, Peptide [%]” value ([2]; no excipients, 6h) was 96.3% and the “in-use stability, Peptide [%]” value ([2]; no excipients, Initial) was 100.0%.

From patent US9289478B2, “Formulations of tumour-associated peptides binding to human leukocyte antigen (HLA) class I or class II molecules for vaccine” (IMMATICS BIOTECHNOLOGIES GMBH, priority 2008, dated 2016)
